Measured values reported in the supplement of paper PMC10126150.
± gives the standard deviation of the averaged measurements.

System: ATP
Experiment: switch fluorescence ratio, 500 uM ATP over buffer (Cy3 cluster intensity, sum of 5 cycles each) (fold (ratio)); higher = stronger signal-on switching upon ATP binding; sequences stand for … in TCGTCGGCAGCGTCAGATGTGTATAAGAGACAGTTTTTTTTTTTTTTTTTTTTTTTTT…TC
Settings: aptamer strand: ATP DNA aptamer (quencher-CACCTGGGGGAGTATTGCGGAGGAAGG + anchor), 100 nM annealed; ATP concentration: 500 uM
In short: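 Cy3-labelled switching-strand clusters on a modified Illumina MiSeq flow-cell were annealed to 100 nM quencher-labelled ATP aptamer, imaged in selection buffer, then imaged after 15 min with 500 uM ATP at 22 °C. Five buffer/ATP cycles ran, with NaOH stripping and re-annealing between them. The fluorescence ratio is summed target-cycle over summed buffer-cycle Cy3 intensity per cluster, averaged per switch-domain sequence. Clusters outside 100-1000 RFU were excluded.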
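Also: ATP exposure 15 min at 22 °C before imaging.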

Row | Sequence | switch fluorescence ratio
1 | AAGTTACTAC | 1.06 ± 0.027
2 | CGGACCTAGT | 0.9689 ± 0.0042
3 | GGGCAAAGGG | 0.999 ± 0.041
4 | AAGAGGCTGG | 0.99 ± 0.024
5 | TGATAATCGG | 0.997 ± 0.036
6 | GAGGGGGGAG | 0.986 ± 0.027
7 | TGTTAGTAAT | 1.019 ± 0.0087
8 | GGTGATGTGG | 0.986 ± 0.022
9 | CCACATTGGA | 1.001 ± 0.01
10 | TTTTGCGCGA | 1.09 ± 0.095
11 | TTCTATGTTA | 0.997 ± 0.014
12 | CCTAGGGGAG | 1.04 ± 0.04
13 | GATTGTGGAG | 1.01 ± 0.018
14 | GGGAGATGAC | 1.01 ± 0.022
15 | GGTTAGAGTA | 1.01 ± 0.025
16 | TTTACAATGG | 1.058 ± 0.0062
17 | TGGGACCGGC | 0.98 ± 0.021
18 | GGGAAACAAT | 1.55 ± 0.91
19 | TTTGGCGGCG | 0.993 ± 0.067
20 | GATGAAGCGA | 1.19 ± 0.02
21 | CTATAAACGG | 1.03 ± 0.054
22 | GACTTTAGGG | 1.02 ± 0.065
23 | CGTTTCGTGT | 0.972 ± 0.066
24 | CGTTTGTTGG | 0.984 ± 0.028
25 | ATCTGAATGG | 1.12 ± 0.17

Row | Sequence | switch fluorescence ratio
26 | AGTGGTGGCG | 0.9 ± 0.082
27 | TGGCGCCGAT | 0.9608 ± 0.0026
28 | AATAGGTGTT | 1.07 ± 0.015
29 | GGGCAGCTCT | 0.958 ± 0.016
30 | GCTTAGTTGT | 1.015 ± 0.0065
31 | GGATTTTAGC | 0.9835 ± 0.0024
32 | TTTTTGACGG | 1 ± 0.033
33 | TGACTTAGTG | 1.03 ± 0.016
34 | AAGTATTTCG | 0.9995 ± 0.0062
35 | CGTATCAATT | 1.003 ± 0.004
36 | GAAATTGGTT | 0.988 ± 0.067
37 | GGAACGAAAG | 0.995 ± 0.043
38 | TTTTCTACTT | 0.999 ± 0.027
39 | TTGAAATTTG | 1 ± 0.011
40 | GTGTTTCCTT | 1.02 ± 0.036
41 | ATACGATATT | 1.142 ± 0.0033
42 | ATTTATAGAT | 0.979 ± 0.028
43 | ATACGAGGGC | 1.01 ± 0.028
44 | TCTTATTTTT | 1.01 ± 0.025
45 | GGGGAGGGCC | 1.01 ± 0.032
46 | TTTGTTAGAA | 1.02 ± 0.012
47 | GGTGTCCGGT | 0.998 ± 0.03
48 | AGATTGGGTA | 1.01 ± 0.024
49 | TAGTTTGGGT | 0.974 ± 0.012
50 | TTGCTCATAT | 1.02 ± 0.049

Row | Sequence | switch fluorescence ratio
51 | AGGTACGGCC | 1.03 ± 0.033
52 | TTGTTGTTCC | 1.08 ± 0.063
53 | GATTTTGAGC | 0.9986 ± 0.0048
54 | GAGTTCCCGA | 0.977 ± 0.048
55 | ATGGTTTGAG | 0.997 ± 0.026
56 | TATTTTAGTG | 0.996 ± 0.025
57 | AGTAAATTTG | 0.9918 ± 0.0076
58 | TACGATGTGT | 1.03 ± 0.039
59 | TGGGAGTATA | 1 ± 0.032
60 | TGTATATGG | 0.958 ± 0.016
61 | ATGGAGGGGA | 1 ± 0.021
62 | TACGTTCCTG | 1.03 ± 0.028
63 | TGGTGCGGGG | 0.999 ± 0.026
64 | CTCAACGTTC | 1.088 ± 0.006
65 | TTAGGCCGGA | 1.04 ± 0.075
66 | AGGTTGCAGT | 1.01 ± 0.077
67 | CAATAAAGCT | 1.07 ± 0.041
68 | TTTTAAGGAG | 1 ± 0.047
69 | ATTCAGAAGG | 1.01 ± 0.041
70 | ACATGCCGGG | 1.03 ± 0.085
71 | CGTACCGGTC | 1.04 ± 0.079
72 | GGGGGTCACT | 0.993 ± 0.026
73 | TGGGAGAGT | 1.011 ± 0.0034
74 | TGGGGCAATT | 1.1 ± 0.06
75 | GATACTCGTG | 0.97 ± 0.032

Row | Sequence | switch fluorescence ratio
76 | AGCAGGGGTA | 1.17 ± 0.26
77 | CACGTTATAG | 1.19 ± 0.026
78 | GCGGAATATG | 1.13 ± 0.018
79 | AACAGTGTAG | 1 ± 0.013
80 | TTGTTGGGCT | 0.981 ± 0.039
81 | ATCGTTTGCA | 1.02 ± 0.022
82 | TAGTATTAGA | 0.993 ± 0.031
83 | GAGGCGGCTG | 0.994 ± 0.038
84 | GTTTTGGTAG | 1.001 ± 0.0067
85 | AAAGATTTTT | 0.9851 ± 0.0092
86 | GTTTAACGGG | 1.03 ± 0.051
87 | AAGGTTTTTT | 1.01 ± 0.02
88 | AGACCAATTC | 1.095 ± 0.0037
89 | GAGATATTGT | 1.03 ± 0.038
90 | CGGCTATGTG | 0.985 ± 0.027
91 | AACGTGAGGG | 0.989 ± 0.051
92 | CAGGAAATGG | 0.999 ± 0.017
93 | GATGTAGTGG | 1.029 ± 0.0055
94 | TGCGCTTATA | 1.09 ± 0.015
95 | TTGGGCAGTA | 0.978 ± 0.057
96 | GCTTTCGGGC | 1.01 ± 0.045
97 | CAGGGGTAAA | 1.01 ± 0.019
98 | TGGGGGGATT | 1.01 ± 0.045
99 | TTAAATACGT | 1.06 ± 0.049
100 | TCGCTTCTCT | 1.76 ± 1

Row | Sequence | switch fluorescence ratio
101 | GCAAAAAAAT | 1.04 ± 0.025
102 | TGGTACCTTG | 1.19 ± 0.26
103 | ATGGACTCAA | 1.051 ± 0.0073
104 | CGGGGATGGG | 0.992 ± 0.022
105 | GCTTTTGCCG | 0.993 ± 0.036
106 | CAGGTATAGG | 0.9864 ± 0.0054
107 | TTGACGAATC | 1.067 ± 0.002
108 | TAGAAACACT | 1.05 ± 0.02
109 | TATTGGTGTT | 0.99 ± 0.015
110 | CGATTACTCC | 2.82 ± 0.089
111 | CGGTTTTTGT | 0.9992 ± 0.008
112 | AGGTTGTGGC | 0.992 ± 0.033
113 | GGTGCGCATG | 0.994 ± 0.011
114 | GGGTTAGGGG | 1.01 ± 0.04
115 | TTGACTAT | 1.005 ± 0.0027
116 | GCGGGGGCAT | 0.964 ± 0.012
117 | CGGCTAAGGG | 0.981 ± 0.014
118 | AGATGTCTGG | 0.9897 ± 0.0063
119 | TGGTGACTTA | 0.974 ± 0.039
120 | GTTTTTCAGG | 1 ± 0.017
121 | ACGCGGCTAT | 1.06 ± 0.033
122 | AGGTTTTGAT | 1.01 ± 0.019
123 | TGTTTTGTGT | 1.035 ± 0.0073
124 | TCTGATGGCT | 1.04 ± 0.05
125 | TGGCCAGCTC | 0.975 ± 0.016

Row | Sequence | switch fluorescence ratio
126 | TAGTTCGGGG | 1.01 ± 0.024
127 | TGGTGGTGGT | 1.01 ± 0.033
128 | TTTCGTGTAG | 1 ± 0.032
129 | CCCCCGTTCC | 1.72 ± 0.2
130 | TCCGGTTTTT | 1.07 ± 0.16
131 | ATTGGGCACC | 0.998 ± 0.048
132 | GGCGTATCAG | 0.979 ± 0.051
133 | AGAAGAGTAA | 1.009 ± 0.0091
134 | CTACTCTCGC | 1.15 ± 0.019
135 | GGTAGGGGCG | 1.03 ± 0.031
136 | GTATGACGTA | 0.968 ± 0.037
137 | GGGTTGGGGG | 1 ± 0.032
138 | AAAACGCGGT | 1.2 ± 0.042
139 | TATAGGGCGG | 1.13 ± 0.21
140 | GAAGGTGAAT | 1.04 ± 0.022
141 | GGTGTCTGGT | 1.001 ± 0.0061
142 | TCGTCTAAGG | 0.995 ± 0.014
143 | GAGGCGCTTA | 0.961 ± 0.011
144 | TTCAGGTTGG | 1.08 ± 0.082
145 | ATTCACCGCG | 1.155 ± 0.0057
146 | ATTCTGTGTG | 0.9648 ± 0.0023
147 | TTAAACCTGG | 1.08 ± 0.032
148 | AGATTGCCGG | 0.97 ± 0.034
149 | GGACAGGCAT | 0.9852 ± 0.0091
150 | CGGGGGATTA | 1.02 ± 0.049

Row | Sequence | switch fluorescence ratio
151 | GAGTTCCGGG | 1.01 ± 0.024
152 | AGAGGGGAAT | 1.01 ± 0.023
153 | TCAATTTAGG | 0.966 ± 0.014
154 | TCGAGATGG | 0.97289 ± 7.7e-05
155 | TTAAAACGGG | 0.969 ± 0.037
156 | TGTTTTAGGA | 0.993 ± 0.015
157 | AGGAAGGGTT | 1.05 ± 0.12
158 | GGAAGGGATG | 1 ± 0.026
159 | CCTGAGGGTT | 0.985 ± 0.0069
160 | TTTCTGATTT | 0.983 ± 0.022
161 | TTTTTTTGGC | 1.02 ± 0.029
162 | TTTTTCCAAG | 1.02 ± 0.011
163 | GAGTGCTGGG | 1.01 ± 0.011
164 | TGTTACAGAG | 1.01 ± 0.052
165 | TTTAGAGTGC | 1 ± 0.093
166 | GGGGTTCC | 0.998 ± 0.0092
167 | TCTAAATTTA | 1.01 ± 0.06
168 | GGCCTGGGCT | 1.02 ± 0.061
169 | TTTCAGTATG | 1.02 ± 0.023
170 | ACGTTGGGGG | 1.01 ± 0.028
171 | GTGATAAATG | 0.956 ± 0.021
172 | GCGGTACAGC | 0.9782 ± 0.0069
173 | CATAGTATGG | 0.9706 ± 0.0029
174 | TAATCCATTT | 1.02 ± 0.036
175 | GCACGTCGAA | 1.08 ± 0.032

Row | Sequence | switch fluorescence ratio
176 | GAATTGTTCG | 0.985 ± 0.051
177 | TTTTATTCAG | 1 ± 0.03
178 | TTACTCCGGG | 1.3 ± 0.23
179 | AGAGGGGTAC | 0.992 ± 0.047
180 | ATAGGGTGCG | 1 ± 0.03
181 | GAGTAGGAAG | 0.961 ± 0.05
182 | ACGGGGTTGT | 1 ± 0.024
183 | TGGAAATCGT | 1.07 ± 0.083
184 | AGTTAATAAT | 1.01 ± 0.032
185 | ATGAGGGTTG | 1.04 ± 0.013
186 | ATTTTTTAAG | 0.9996 ± 0.0081
187 | CCGGACCCAA | 1.75 ± 0.23
188 | ATTAAATTAG | 1.04 ± 0.051
189 | TTTAAAGCAG | 1.01 ± 0.02
190 | ACTTGCCGTA | 0.992 ± 0.071
191 | GGGGGCGCGA | 1.02 ± 0.035
192 | ATATGACGGT | 0.98 ± 0.029
193 | GGGGGTAGAG | 0.988 ± 0.015
194 | GAGTTGCAGG | 1.01 ± 0.032
195 | CTGTTGGGCC | 0.9949 ± 0.0047
196 | TTTTACTT | 0.998 ± 0.042
197 | CGATTTGCCT | 0.9806 ± 0.006
198 | TTGGGGTTCG | 0.98 ± 0.029
199 | GAAGTATGAT | 0.962 ± 0.042
200 | GGGGCCAAAA | 0.947 ± 0.11
